The values that follow come from paper PMC12230644, “A Bacteriophage‐Derived Primase‐Helicase Orchestrates Plant Organellar DNA Replication” (Physiologia Plantarum, 2025).

The target in series [1] is AtPolIB (Arabidopsis thaliana organellar DNA polymerase IB) (Arabidopsis thaliana). The series can be described thus: MST; fluorescently labelled AtPolIB (His‐tag labelling kit) at constant concentration, AtHelicase or AtHelicase‐Δ10 titrated; PBS with 0.05% Tween‐20; NanoTemper Monolith NT.115p; no DNA.
For series [2], the target named is T1, AtTwinkle (Arabidopsis thaliana, UniProt B5X582 92-709).
T1 sequence: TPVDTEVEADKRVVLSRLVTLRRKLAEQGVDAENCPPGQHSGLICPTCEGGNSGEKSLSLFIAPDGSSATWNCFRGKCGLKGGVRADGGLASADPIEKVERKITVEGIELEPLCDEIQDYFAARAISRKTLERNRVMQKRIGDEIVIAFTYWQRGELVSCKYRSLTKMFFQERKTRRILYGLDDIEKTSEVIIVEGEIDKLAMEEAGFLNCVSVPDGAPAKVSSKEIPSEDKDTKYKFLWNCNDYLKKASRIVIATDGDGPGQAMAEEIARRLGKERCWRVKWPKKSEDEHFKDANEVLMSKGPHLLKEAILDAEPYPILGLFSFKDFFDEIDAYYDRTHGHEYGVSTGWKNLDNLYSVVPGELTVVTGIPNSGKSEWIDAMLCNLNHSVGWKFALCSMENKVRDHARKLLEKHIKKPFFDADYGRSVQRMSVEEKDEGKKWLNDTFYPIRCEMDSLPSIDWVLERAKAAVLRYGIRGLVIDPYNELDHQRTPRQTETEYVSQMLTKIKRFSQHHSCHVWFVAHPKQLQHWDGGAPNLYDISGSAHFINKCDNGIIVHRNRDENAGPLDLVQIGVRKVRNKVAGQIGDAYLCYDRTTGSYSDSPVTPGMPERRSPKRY
The series can be described thus: EMSA; no polymerase; EMSA on 8% polyacrylamide gel; binding buffer, pH and temperature not given in the material (helicase assays: 20 mM Bis-Tris-Propane pH 7.5, 10 mM MgCl2, 10 mM). To be noted: protein: recombinant; tags: His tag (pET19b; mutagenesis section names pCRI1b-AtTwinkle); chain copies: 6; label: OligoJ 5'-Cy2; fork, strands 1:2 (18 bp) and 2:3 (27 bp); 4 nt gap on template; 22 nt 5' ssDNA tail on strand 3.

Series [3] concerns the target T2, AtPolIA (Arabidopsis thaliana, UniProt F4I6M1 92-1050).
T2 sequence: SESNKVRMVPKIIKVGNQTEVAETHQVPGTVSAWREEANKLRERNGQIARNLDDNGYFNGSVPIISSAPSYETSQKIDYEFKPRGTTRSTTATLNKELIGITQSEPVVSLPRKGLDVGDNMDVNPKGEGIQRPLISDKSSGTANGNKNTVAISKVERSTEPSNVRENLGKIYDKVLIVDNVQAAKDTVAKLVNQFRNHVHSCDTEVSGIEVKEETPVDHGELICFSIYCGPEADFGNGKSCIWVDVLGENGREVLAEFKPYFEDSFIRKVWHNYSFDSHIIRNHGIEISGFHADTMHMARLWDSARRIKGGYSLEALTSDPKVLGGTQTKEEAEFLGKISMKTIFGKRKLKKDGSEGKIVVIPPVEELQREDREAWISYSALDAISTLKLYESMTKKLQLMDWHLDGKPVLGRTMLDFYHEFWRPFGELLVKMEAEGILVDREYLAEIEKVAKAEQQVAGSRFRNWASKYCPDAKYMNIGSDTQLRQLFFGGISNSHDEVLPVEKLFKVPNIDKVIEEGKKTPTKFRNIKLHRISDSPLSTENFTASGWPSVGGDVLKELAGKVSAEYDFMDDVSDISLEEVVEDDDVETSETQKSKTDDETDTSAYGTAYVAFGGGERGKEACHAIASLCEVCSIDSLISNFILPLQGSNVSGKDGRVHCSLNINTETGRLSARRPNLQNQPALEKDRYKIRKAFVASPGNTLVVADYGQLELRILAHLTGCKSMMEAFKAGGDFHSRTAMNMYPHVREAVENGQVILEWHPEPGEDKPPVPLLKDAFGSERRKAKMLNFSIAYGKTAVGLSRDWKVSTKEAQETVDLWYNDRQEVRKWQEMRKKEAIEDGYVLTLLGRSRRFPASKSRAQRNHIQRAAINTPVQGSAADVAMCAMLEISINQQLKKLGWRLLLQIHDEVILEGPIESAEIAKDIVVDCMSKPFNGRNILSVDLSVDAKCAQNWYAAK
The series can be described thus: EMSA; no AtTwinkle; EMSA on 8% polyacrylamide gel; binding buffer, pH and temperature not given in the material (helicase assays: 20 mM Bis-Tris-Propane pH 7.5, 10 mM MgCl2, 10 mM). To be noted: protein: recombinant; tags: Cy5-labeled; label: OligoJ 5'-Cy2; fork, strands 1:2 (18 bp) and 2:3 (27 bp); 4 nt gap on template; 22 nt 5' ssDNA tail on strand 3. (In general: Mobility shift assays separate free from complexed probe on a gel.)

The target of series [4] is AtTwinkle;AtPolIA (Arabidopsis thaliana;Arabidopsis …, UniProt B5X582;F4I6M1 92-709;92-1050, |). The series can be described thus: EMSA; constant AtPolIA, high AtTwinkle; Cy2/Cy5 (orange) band at gel top, AtPolIA-DNA band disappears; EMSA on 8% polyacrylamide gel; binding buffer, pH and temperature not given in the material (helicase assays: 20 mM Bis-Tris-Propane pH 7.5, 10 mM MgCl2, 10 mM). The note with it: protein: recombinant;recombinant; tags: His tag (pET19b; mutagenesis section names pCRI1b-AtTwinkle);Cy5-labeled; label: OligoJ 5'-Cy2; fork, strands 1:2 (18 bp) and 2:3 (27 bp); 4 nt gap on template; 22 nt 5' ssDNA tail on strand 3.

Series [5] deals with the molecule itself. In words: SEC; Superdex 200 gel filtration column calibrated with thyroglobulin, γ‐globulin, ovalbumin and myoglobin; in the absence of metal ions and nucleotides; size of the oligomer from the apparent mass. In general terms: Size exclusion chromatography separates by hydrodynamic size, large species first.

Values joined by “and” are separate entries in the source; they are usually repeats but may differ in a detail not shown here. Identical values can stand only once.

B1: AtHelicaseΔ10 (AtHelicase lacking the last 10 amino acids) (domain or fragment)
chain: ILDAEPYPILGLFSFKDFFDEIDAYYDRTHGHEYGVSTGWKNLDNLYSVVPGELTVVTGIPNSGKSEWIDAMLCNLNHSVGWKFALCSMENKVRDHARKLLEKHIKKPFFDADYGRSVQRMSVEEKDEGKKWLNDTFYPIRCEMDSLPSIDWVLERAKAAVLRYGIRGLVIDPYNELDHQRTPRQTETEYVSQMLTKIKRFSQHHSCHVWFVAHPKQLQHWDGGAPNLYDISGSAHFINKCDNGIIVHRNRDENAGPLDLVQIGVRKVRNKVAGQIGDAYLCYDRTTGSYSDSPVTPG
For B1, the Kd in series [1] was found to be 3640 nM.

B2: replication fork OligoJ+OligoK+OligoL (mixed)
DNA 1: AGCTATGACCATGATTAC
DNA 2: AGCTACCATGCCTGCACGAATTAAGCAATTCGTAATCATGGTCATAGCT
DNA 3: CAACTGCTCCGATGCCTTACCGTGCTTAATTCGTGCAGGCATGGTAGCT
With B2, the binding result in series [2], in series [3] and in series [4] was “binds” throughout.

B3: AtHelicase (helicase domain of AtTwinkle) (domain or fragment, Arabidopsis thaliana, UniProt B5X582 402-709, looked up)
chain: ILDAEPYPILGLFSFKDFFDEIDAYYDRTHGHEYGVSTGWKNLDNLYSVVPGELTVVTGIPNSGKSEWIDAMLCNLNHSVGWKFALCSMENKVRDHARKLLEKHIKKPFFDADYGRSVQRMSVEEKDEGKKWLNDTFYPIRCEMDSLPSIDWVLERAKAAVLRYGIRGLVIDPYNELDHQRTPRQTETEYVSQMLTKIKRFSQHHSCHVWFVAHPKQLQHWDGGAPNLYDISGSAHFINKCDNGIIVHRNRDENAGPLDLVQIGVRKVRNKVAGQIGDAYLCYDRTTGSYSDSPVTPGMPERRSPKRY
notes: AtTwinkle, Arabidopsis thaliana, AT1G30680, helicase domain, residues 402-709; Modified pET28-SUMO vector; also called helicase module of AtTwinkle; wild‐type AtHelicase; source: E. coli BL21(DE3) with pKJ7 chaperones, purified (Ni‐NTA, heparin, Superdex 200)
In series [1], B3 returned a Kd of 210 nM. Also, in series [5], the “stoichiometry N” value amounted to 6.

B4: AtTwinkle (bacteriophage‐related primase‐helicase from Arabidopsis thaliana), processed form (enzyme, UniProt B5X582 92-709, looked up)
chain: T1 sequence
notes: codon-optimised gene; The results call this construct 'full-length'; the methods give residues 92-709; The oligomer size is told differently in text (nonamer and a larger complex) and legend (hexamer), so copies is left empty; The methods name pET19b for cloning and pCRI1b-AtTwinkle for mutagenesis; also called plant Twinkle; full‐length AtTwinkle; source: E. coli BL21(DE3) with pKJ7 chaperones, …
With B4, the “stoichiometry N” value in series [5] is 9 and 6.

Usually Kd stands for a measure of binding affinity in units of concentration. High values mean lower affinity, low ones higher affinity. Broadly, the stoichiometry N is a count of units in the complex or per binding partner.
